Assay results from patent publication US12564623B2, “Methods and compositions for treating cancer” (The University of Chicago, priority 2017, dated 2026).
Entries after “also recorded” stand apart in the source; their conditions may differ.

What was measured:
[1] = test system: Human or murine cancer cells; assay: Cancer cell viability and apoptosis (Calcein AM, Caspase 3/7, Annexin V); assay type: cell-based; details: 50 nM; 24 hrs viability, 6 hrs apoptosis
Procedure: (§1) Human PMN'S broadly and selectively kill cancer cells. Human peripheral blood neutrophils (PMN) were isolated from healthy donors and incubated in serum-free DMEM to collect their secreted factors (PMN-media). (A-B) Human or murine cancer cells (A) or healthy cells (b) were incubated with PMN media or control serum-free DMEM (Ctrl media) for 24 hours. Cell viability was assessed by Calcein AM staining. (C) Human or murine cancer cells were treated with PMN media or Ctrl media for 6 hours. Caspase 3/7 activity was examined by a luminescence activity assay, while cell surface Annexin V staining was assessed by flow cytometry. […] (FIG. 1).
(§2) (FIG. 6A) Cancer cells or healthy cells were treated with 50 nM purified native ELANE or control DMEM media (Ctrl) media for 24 hrs, and cell viability was assessed by Calcein AM staining. (FIG. 6B) Cancer cells were treated with 50 nM ELANE or Ctrl media for 6 hrs, and apoptosis was assessed by Caspase 3/7 luminesce activity assay or cell surface Annexin V staining by flow cytometry. *, p<0.05, Student's t-test.

healthy cells = assay: Healthy cell viability, Calcein AM; assay type: cell-based; details: 50 nM, 24 hrs
Procedure: as §1, §2

Cancer cells = assay: ELANE uptake and killing with endocytosis inhibitor Dynasore; assay type: cell-based; details: ELANE 30 nM, Dynasore 80 μM, 6 hours
Procedure: (FIG. 9A) Cancer cells were treated with ELANE (100 nM) in the presence or absence of a broad endocytosis inhibitor Dynasore (80 μM) for 30 mins. ELANE catalytic activity in cell lysates was assessed by a chromogenic substrate assay. (FIG. 9B) Cancer cells were treated with ELANE (30 nM) in the presence or absence of Dynasore (80 μM) for 6 hours. Cell viability was examined by Calcein AM staining. *, p<0.05, Student's t-test.

[2] = test system: E0771, B16F10, or LLC1 cancer cells; assay: Tumor growth after intratumoral delivery, syngeneic models; assay type: in vivo, C57BL/6 mice; details: 11.6 μg intratumorally once/day for 5 days
Procedure: ELANE activity is required for its anti-tumor function in vivo. (FIG. 14A) Catalytic activity of ELANE or ELANE that had been inactivated by treatment with 100 nM PMSF (PMSF-ELANE) was determined by a chromogenic substrate. (FIG. 14B) E0771, B16F10, or LLC1 cancer cells were injected into C57BL/6 mice. Once tumors reached ˜100 mm^3, human serum albumin (HSA, 11.6 μg), ELANE (11.6 μg), or PMSF-ELANE (11.6 μg) were delivered intratumorally once/day for 5 days. Tumor volume was assessed by calipers.

tumors = assay: Tumor apoptosis markers and CD95 staining after intratumoral delivery; assay type: in vivo, mice
Procedure: (FIG. 16A) MDA-MB-231, A549, or MEL888 (xenograft model) cells were injected into athymic nude mice; M1 or 4195 tumors (TNBC PDX models) were propagated in SCID mice; and E0771, LLC1, or B16F10 cells (syngeneic models) were injected into C57BL/6 mice. Once tumors reached ˜100 mm^3, ELANE (11.6 μg), or PMSF-ELANE (11.6 μg) were delivered intratumorally once/day for 5 days. Tumors were isolated on day 6, formalin fixed, and examined by immunohistochemistry or immunofluorescence staining for TUNEL, cleaved-PARP (cPARP), and cleaved CASP3 (cCASP3). Images were taken under 40×. (FIG. 16B) Tumor sections were stained with N-terminal (N-CD95) and C-terminal (C-CD95) specific anti-CD95 antibodies, followed by secondary antibody staining (Alex fluor 488 and 594 for C-CD95 and N-CD95 respectively). Fluorescence intensity quantification was performed on 3-4 areas/mouse.

[3] = Side effects in healthy non-tumor-bearing mice; assay type: in vivo, C57BL/6 mice; details: mammary fat pad, once a day for 5 consecutive days
Procedure: Human serum albumin (HSA; 11.6 μg)) or ELANE (11.6 μg) was injected into the mammary fat pad of healthy non-tumor-bearing C57BL/6 mice once a day for 5 consecutive days, and side effects were monitored. (a) Immunohistochemistry staining for apoptosis markers (TUNEL, cleaved CASP3 (c-CASP3), cleaved PARP (c-PARP)) 2 days after the final injection. (b) Delta body weight. (c) Spleen weight. (c) Blood ALT activity levels (a marker of liver function).
4 μM human albumin (Ctrl) or 4 μM ELANE was injected into the mammary fat pad of healthy non-tumor-bearing C57BL/6 mice once a day for 5 consecutive days, and side effects were monitored. Body weight, spleen weight, and blood ALT activity levels (a marker of liver function). Immunohistochemistry staining for apoptosis markers (cleaved CASP3 (c-CASP3), cleaved PARP (c-PARP)) 2 days after the final injection. Quantification of CD8+ effector cytotoxic T-cells (defined as CD3^+CD8^+CD62L^LOCD44^HI) in the blood 2 days after the final injection.

MDA-MB-231 cells = assay: ELANE inactivation by PMSF or A1AT and killing assay; assay type: cell-based, human; details: PMSF 100 nM or A1AT 42 nM for 30 mins; 24 hrs
Procedure: (FIG. 5A) Purified native ELANE or PMN media was treated with PMSF (100 nM) or alpha-1-anti-trypsin (A1AT; 42 nM) for 30 mins and loss of ELANE catalytic activity was confirmed by a chromogenic substrate assay. Killing assays were performed by treating MDA-MB-231 cells for 24 hrs treatment and assessed by Calcein AM staining. (FIG. 5B) ELANE activity in PMN media was measured by a chromogenic substrate activity assay, and PMN killing was measured by Calcein AM staining on MDA-MB-231 cells exposed to PMN media for 4h.

B1: neutrophil elastase (protein, listed as Homo sapiens)
chain: MTLGRRLACLFLACVLPALLLGGTALASEIVGGRRARPHAWPFMVSLQLRGGHFCGATLIAPNFVMSAAHCVANVNVRAVRVVLGAHNLSRREPTRQVFAVQRIFENGYDPVNLLNDIVILQLNGSATINANVQVAQLPAQGRRLGNGVQCLAMGWGLLGRNRGIASVLQELNVTVVTSLCRRSNVCTLVRGRQAGVCFGDSGSPLVCNGLIHGIASFVRGGCASGLYPDAFAPVAQFVNWIDSIIQRSEDNPCPHPRDPDPASRTH
notes: purified native ELANE
[1]
  cancer cell killing and apoptosis: selectively kill cancer cells by inducing apoptosis
Healthy cells
  healthy cell viability: does not kill normal healthy cells
Cancer cells
  dependence of killing on uptake: internalization is required to kill cancer cells
[2]
  tumor growth: slows tumor growth
tumors; 11.6 μg intratumorally once/day for 5 days, day 6
  C-CD95 levels in tumors: attenuates C-CD95 levels in vivo
tumors; intratumoral delivery, mouse cancer models
  apoptosis in tumors: induces cancer cell apoptosis; also recorded: induced widespread apoptosis
[3]
  side effects (body weight, spleen weight, blood ALT, apoptosis markers): does not produce evident side-effects
MDA-MB-231 cells
  dependence of cancer cell killing on catalytic activity: catalytic activity is required for its selective cancer cell killing
